Experimental data taken from publication PMC7269643 (Science Advances, 2020).

Target: the molecule itself
Experiment: AUC

B1: VapC22 toxin from Mycobacterium tuberculosis, expressed alone from a modified pBAD/Myc-His vector (enzyme)
chain: MTTVLLDSHVAYWWSAEPQRLSMAASQAIEHADELAVAAISWFELAWLAEQERIQLAIPVLSWLQQLAEHVRTVGITPSVAATAVALPSSFPGDPADRLIYATAIEHGWRLVTKDRRLRSHRHPRPVTVW
stoichiometry N: 2
